Results from patent US20230134571A1 (INTERNATIONAL AIDS VACCINE INITIATIVE, published 2023).

What was measured:
Experiment in all cases: cell-based or functional assay
[1] = molecular target: HIV Env, isolate 1245045 (HIV)
[2] = molecular target: HIV Env, isolate 19157834_V1 (HIV)
[3] = molecular target: HIV Env, isolate 2969249 (HIV)
[4] = molecular target: HIV Env, isolate 3514597 (HIV)
[5] = molecular target: HIV Env, isolate 20258279_V2 (HIV)
[6] = molecular target: HIV Env, isolate 19252094_A5_G2 (HIV)
[7] = molecular target: HIV Env, isolate 19707346_E8_C6 (HIV)
[8] = molecular target: HIV Env, isolate 20198102_E9_G1 (HIV)
[9] = molecular target: HIV Env, isolate 21492713_B11_E3 (HIV)
[10] = molecular target: HIV Env, isolate 234-F1-16-57 (HIV)
[11] = molecular target: HIV Env, isolate CAP174.1.06_F3_1B (HIV)
[12] = molecular target: HIV Env, isolate 722_G4_16 (HIV)
[13] = molecular target: HIV Env, isolate So405_T24_5 (HIV)
[14] = molecular target: HIV Env, isolate CT966_E1-7 (HIV)
[15] = molecular target: HIV Env, isolate CT140_140_B6 (HIV)
[16] = molecular target: HIV Env, isolate Ko426_T78_10 (HIV)
[17] = molecular target: HIV Env, isolate Ko459_T68_4 (HIV)
[18] = molecular target: HIV Env, isolate Ko870_C2_10 (HIV)
[19] = molecular target: HIV Env, isolate CA392_H2_6 (HIV)
[20] = molecular target: HIV Env, isolate CA240_A5.5 (HIV)
[21] = molecular target: HIV Env, isolate 2865_A11.12 (HIV)
[22] = molecular target: HIV Env, isolate 3603_C11.13 (HIV)
[23] = molecular target: HIV Env, isolate 3312_D6.2 (HIV)
[24] = molecular target: HIV Env, isolate CAP304.2.00_F6.6 (HIV)
[25] = molecular target: HIV Env, isolate CAP330.2.00_F2.41 (HIV)
[26] = molecular target: HIV Env, isolate CT810_G4-7 (HIV)
[27] = molecular target: HIV Env, isolate SO607_B6.9 (HIV)
[28] = molecular target: HIV Env, isolate SO032_A2.8-1 (HIV)
[29] = molecular target: HIV Env, isolate 6022.v7.c24 (HIV)
[30] = molecular target: HIV Env, isolate ZM135M.PL10a (HIV)
[31] = molecular target: HIV Env, isolate ZM214M.PL15 (HIV)
[32] = molecular target: HIV Env, isolate ZM106F.PB9 (HIV)
[33] = molecular target: HIV Env, isolate 6631.v3.c10 (HIV)
[34] = molecular target: HIV Env, isolate Ce703010131_1E2 (HIV)
[35] = molecular target: HIV Env, isolate Ce0665_F2 (HIV)
[36] = molecular target: HIV Env, isolate CeCAP200_B8a (HIV)
[37] = molecular target: HIV Env, isolate 7060101641A7(Rev-) (HIV)

B1: ePGDM9 (antibody, V domains shown)
VH: QAQLVQSGPEVRKPGTSVKVSCKNPGNTLTTYDLHWVRQVPGQGLQWMGWISHEGDKKVIVERFKAKVTIDWDRSTNTAYLQLSGLTSEDTAVYYCAKGSKHRLRDYALYDEDGALNWAVDVDYLANLEFWGQGTAVTVSS
VL: DIVLTQSPLSLSVTPGESASISCKSSQSLIHGDRNNYLAWYVQKPGRSPQLLIDLASERASGVPDRFSGSGSRKDFTLKISRVETEDVGTYYCMQGRESPWTFGQGTKVDIK
- IC50 [1]: 0.002 µg/mL
- IC80 [1]: 0.006 µg/mL
- IC50 [2]: 31.7 µg/mL
- IC80 [2]: > 50 µg/mL
- IC50 [3]: > 50 µg/mL
- IC80 [3]: > 50 µg/mL
- IC50 [4]: 0.003 µg/mL
- IC80 [4]: 0.011 µg/mL
- IC50 [5]: > 50 µg/mL
- IC80 [5]: > 50 µg/mL
- IC50 [6]: 0.001 µg/mL
- IC80 [6]: 0.003 µg/mL
- IC50 [7]: 0.005 µg/mL
- IC80 [7]: 0.014 µg/mL
- IC50 [8]: 0.007 µg/mL
- IC80 [8]: 0.021 µg/mL
- IC50 [9]: > 50 µg/mL
- IC80 [9]: > 50 µg/mL
- IC50 [10]: < 0.0006 µg/mL
- IC80 [10]: 0.002 µg/mL
- IC50 [11]: 12.6 µg/mL
- IC80 [11]: > 50 µg/mL
- IC50 [12]: 0.198 µg/mL
- IC80 [12]: 0.585 µg/mL
- IC50 [13]: 14.3 µg/mL
- IC80 [13]: > 50 µg/mL
- IC50 [14]: < 0.0006 µg/mL
- IC80 [14]: 0.003 µg/mL
- IC50 [15]: 0.248 µg/mL
- IC80 [15]: 1.83 µg/mL
- IC50 [16]: > 50 µg/mL
- IC80 [16]: > 50 µg/mL
- IC50 [17]: 0.003 µg/mL
- IC80 [17]: 0.126 µg/mL
- IC50 [18]: 0.001 µg/mL
- IC80 [18]: 0.021 µg/mL
- IC50 [19]: 0.032 µg/mL
- IC80 [19]: 0.129 µg/mL
- IC50 [20]: > 50 µg/mL
- IC80 [20]: > 50 µg/mL
- IC50 [21]: 0.071 µg/mL
- IC80 [21]: 0.258 µg/mL
- IC50 [22]: 0.654 µg/mL
- IC80 [22]: 2.17 µg/mL
- IC50 [23]: 0.004 µg/mL
- IC80 [23]: 0.011 µg/mL
- IC50 [24]: 0.002 µg/mL
- IC80 [24]: 0.013 µg/mL
- IC50 [25]: < 0.0006 µg/mL
- IC80 [25]: 0.004 µg/mL
- IC50 [26]: 0.087 µg/mL
- IC80 [26]: 5.53 µg/mL
- IC50 [27]: 29.5 µg/mL
- IC80 [27]: > 50 µg/mL
- IC50 [28]: > 50 µg/mL
- IC80 [28]: > 50 µg/mL
- IC50 [29]: > 50 µg/mL
- IC80 [29]: > 50 µg/mL
- IC50 [30]: > 50 µg/mL
- IC80 [30]: > 50 µg/mL
- IC50 [31]: > 50 µg/mL
- IC80 [31]: > 50 µg/mL
- IC50 [32]: 0.007 µg/mL
- IC80 [32]: 0.024 µg/mL
- IC50 [33]: > 50 µg/mL
- IC80 [33]: > 50 µg/mL
- IC50 [34]: < 0.0006 µg/mL
- IC80 [34]: 0.004 µg/mL
- IC50 [35]: 22.4 µg/mL
- IC80 [35]: > 50 µg/mL
- IC50 [36]: 0.003 µg/mL
- IC80 [36]: 0.022 µg/mL
- IC50 [37]: 0.002 µg/mL
- IC80 [37]: 0.013 µg/mL
